Experimental data from patent publication US11001846B2, “Aptamers, nucleic acid molecules, polynucleotides, synthetic antibodies compositions for detecting PRRS viruses and treating PRRS virus infection” (AEROVIRUS TECHNOLOGIES INC., priority 2015, dated 2021).
Where “and” joins values, the source holds several entries; their conditions need not be identical. Equal entries are not always repeated. Entries after “also recorded” stand apart in the source; their conditions may differ.

Key:
[1] = system: M-S-S-GP5 peptidic complex; test: ELISA reverse screening: binding to M-S-S-GP5 peptidic complex, type 2; settings: type 2 PRRSV complex
Description: ssDNA aptamers were denatured at 80° C. for 10 min and then cooled on ice for 10 min. Aptamers (30 nmole) were mixed with 25 μg of M-S-S-GP5 peptidic complex (further described in Example 6 below) in 500 μl selection buffer (50 mM Tris-HCl; pH 7.4, 5 mM KCl, 100 mM NaCl, 1 mM MgCl2 tRNA, 0.2% BSA) at 37° C. for 30 min. Aptamer-peptide complex was purified by adding the 25 μl Ni-NTA superflow and amplified by PCR using primers directed to the common T3 sequences in the aptamer library, and 3′-primer (i.e. -[…]-3′). SELEX was repeated 3 times, following which amplified nucleotides were transformed into E. coli. PCR conditions for SELEX included 5 min 95° C./1 min 95° C./1 min 55° C./1 min 72° C./10 min 72° C. and 100 pmole of each primer.
Selected ssDNA molecules from each individual clone were biotinylated using the B-T3 which is same sequence with 5′ primer (T3 primer), and Klenow fragment (2 unit/ml). To prepare single stranded biotin conjugated CoocSeq5 aptamer for the reverse screening, T3 Primer was Biotin labelled. A 96-well flat bottom ELISA plate was prepared by coating each well with 100 μl of streptavidin (100 μg/ml) diluted in 0.1 M NaHCO3 following by a 37° C. overnight incubation. Following several washings with PBS, wells were blocked with 200 μl of PBS containing 1% BSA for 2 hours at room temperature and subsequent washing three times with PBS-T (10 mM PBS containing 0.05% (v/v) Tween-20). […]
High binding capacity ELISA plates (Immunoplate, Nunc) were coated with 100 μl allantoic fluid containing 500 TCID50 of various PRRS virus strains diluted in phosphate buffered saline (PBS) by incubating at 4° C. overnight. […] Following this incubation period, plates were washed five times in PBS-T and bound antibodies were detected using horseradish peroxidase labelled goat anti-mouse IgG conjugates (HRP). […] Reaction was terminated with 50 μl of 2M H2SO4, plates were read with a multichannel spectrophotometer at 570 nm.

LHVA-93-3 PRRS virus [2] = test: In-vivo protection of swine from PRRSV infection (Example 3)
Description: Swine—SPF American Yorkshire swine at the age of 10-12 weeks were purchased. The selected swine were all exempt of PRRSV, SIV, and Mycoplasma Hyopneumoniae.
(§1) Swine were inoculated intranasally with sub-lethal infectious fluid containing 40TCID50/ml PRRS virus (LHVA-93-3) with or without 2.5 nmole A505 aptamer for different time intervals. Pig body weight was monitored for 2 weeks. Viral titer in the lungs was determined by the CPE titration method (OIE Terrestrial Manual—May 2015, Chapter 2.8.7—Porcine Reproductive and Respiratory Syndrome, section 1.1.3). Other pigs were sacrificed 6 days following viral inoculation and lungs were removed and homogenized in PBS 0.1% BSA (10% w/v). Following homogenization, samples were centrifuged to remove debris and stored at −80° C.
(§2) The cells/viruses were incubated for 2-5 days and observe daily for a CPE. At day 2, seed macrophages in new microtitre plates. Fifty (50) μl of the supernatants were transferred from the plates of the first passage to the corresponding wells of the freshly seeded plates (second passage). The wells were incubated for 2-5 days and observed daily for a CPE. The results of the CPE assays were presented as log TCID50.
For lung histology, pigs were sacrificed at day 7 and lungs were removed into 10% neutral buffered formalin (pH 7.0). Lungs were then sectioned and stained with haemotoxylin and eosin.
The antiviral properties of A505 were determined in vivo prior to and following viral infection. Briefly, the swine were divided into four groups designated ‘untreated’, ‘0 day’, ‘+1 day’ and ‘+2 day’. Each pig was challenged with 40 TCID50/ml of LHVA-93-3 PRRS viruses. Pigs in ‘0 day’ group were inoculated with a mixture of the virus and 2.5 μmole/ml A505, intranasally (i.n.). Pigs in ‘+1 day’ and ‘+2 day’ groups were inoculated with 2.5 μmole/ml A505, in 1 day or 2 days following virus infection, respectively. PRRS infection was monitored by three parameters, including (i) body weight loss during 14 days following virus treatment; (ii) lung virus titre; (iii) histological examination of lungs—sections were taken 7 days following virus inoculation.

LHVA-93-3 PRRS virus [3] = test: In-vivo lung virus titer, LHVA-93-3, comparison with control oligonucleotide and Tilmicosin (Example 4); parameters: species or system swine; settings: intra-nasal
Description: as §1, §2
Tilmicosin (Pulmotil®) was purchased from Eli Lilly (Elanco®), Canada.
Were implemented as described hereinabove. A dose of 15 ug/Kg of A505 was used.
The ability of the A505 aptamer to inhibit PRRSV infection was also compared to that of one of the currently available “anti-PRRSV” drugs, the antibiotic Tilmicosin. To this end, both A505 and Tilmicosin were administered once, together with the virus, using the intra-nasal route. As is shown in Table 2 below, a dose of 60 mg/pig of Tilmicosin (1 mg/kg body weight) reduced virus titer by 0.42 log TCID50, representing a 2.6-fold reduction in virus burden. This is in comparison to a reduction by 1.21 log TCID50 affected by A505 in this particular experiment (over 10 fold reduction in virus burden).

B1: A505: ssDNA aptamer binding type 2 PRRSV M-S-S-GP5 complex (nucleic acid)
DNA: GGGCGACCCTGAAGAGTTTGTAATCTGCGATTTTAAAGTTGAGTCGTCGCGAAACGGTGAAAGCCGTAGGTTGCCC
modifications: DNA, backbone and methylation of C not given here
[1]
  binding to the M-S-S-GP5 complex/heterodimer: highly significant differences from the control ssDNA; also recorded: binding capacity to the M-S-S-GP5 complex; also recorded: found to bind the M-S-S-GP5 heterodimer
LHVA-93-3 PRRS virus [2]; 14 days, treatment groups +2 day, 0 day, +1 day vs control group, FIG. 12a
  body weight loss: significantly lower weight loss and enhanced recovery
LHVA-93-3 PRRS virus [2]; '0 day' group
  protection equivalent to lung virus titer difference: over 99%
LHVA-93-3 PRRS virus [2]; '0 day' group, 2.5 μmole/ml A505 i.n. mixed with virus, 40 TCID50/ml, FIG. 12b
  difference in lung virus titer compared to the non-treated group: more than 2 log
LHVA-93-3 PRRS virus [2]; '+1 day' and '+2 day' groups
  protection in lung virus titer, treatment after infection: Further protection
LHVA-93-3 PRRS virus [2]; all three A505-treated groups, six days after infection, p<0.05, FIG. 12b
  reduction of viral load in the lungs vs infected group: statistically significant
LHVA-93-3 PRRS virus [2]; sections 7 days after virus inoculation, intranasal A505
  lung histology, inflamed areas: reduces the inflamed areas in lungs
LHVA-93-3 PRRS virus [3]; Table 2, administered once with the virus
  Reduction Factor: 17.1
LHVA-93-3 PRRS virus [3]; administered once together with the virus, Tilmicosin 60 mg/pig (1 mg/kg), A505 15 ug/Kg
  Δ (log TCID50), reduction of virus titer: 1.21 log TCID50 and 1.23 log TCID50
LHVA-93-3 PRRS virus [3]; administered once with the virus
  reduction in virus burden: over 10 fold
